Assay results reported in patent US5962294A, “Compositions and methods for the identification and synthesis of sialyltransferases” (The Regents of the University of California, priority 1993, dated 1999).
Numbering of substitutions follows the chain as printed.

Columns and labels:
[1] = biological target: T1, α2,3-N sialyltransferase (Rattus norvegicus, UniProt Q02734); assay: Sialyltransferase assay of soluble rat α2,3-N secreted from COS-1 cells (pBD122); format: biochemical
T1 construct: made in house; host or cells: COS-1 (concentrated culture medium, plasmid pBD122)
T1 sequence (Q02734 29-374 limits assumed): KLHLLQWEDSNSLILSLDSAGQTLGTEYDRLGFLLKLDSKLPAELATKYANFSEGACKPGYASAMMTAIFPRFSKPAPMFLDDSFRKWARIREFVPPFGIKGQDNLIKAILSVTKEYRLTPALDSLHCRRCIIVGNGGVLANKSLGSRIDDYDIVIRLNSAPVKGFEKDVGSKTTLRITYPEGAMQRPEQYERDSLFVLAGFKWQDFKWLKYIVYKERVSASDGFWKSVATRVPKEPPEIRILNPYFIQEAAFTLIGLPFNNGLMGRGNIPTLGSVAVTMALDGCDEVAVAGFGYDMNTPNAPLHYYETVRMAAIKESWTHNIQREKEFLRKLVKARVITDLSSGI
Procedure: In order to produce a soluble form of the sialyltransferase for enzymatic characterization, a fusion protein containing the catalytic domain of the enzyme and the insulin cleavable signal sequence was constructed in the mammalian expression vector pSVL (Pharmacia). […] PCR reactions were carried out as described above with annealing temperature at 55° C.

[2] = biological target: T2, ST3N (Rattus norvegicus, UniProt Q02734); assay: Acceptor specificity of ST3N (Table 4); details: acceptor 0.2 mM
T2 sequence (Q02734 29-374 limits assumed): T1 sequence (Q02734 29-374 limits assumed)

[3] = biological target: T3, rat ST3N (Rattus norvegicus, UniProt Q02734); assay: Acceptor specificity of soluble rat ST3N fusion protein (Table 3); details: acceptor 0.2 mM; relative to LNT
T3 sequence (Q02734 29-374 limits assumed): T1 sequence (Q02734 29-374 limits assumed)

[4] = biological target: T4, ST3O (Sus scrofa, UniProt Q02745); assay: Acceptor specificity of ST3O (Table 4); details: acceptor 0.2 mM
T4 sequence (Q02745 28-343 limits assumed): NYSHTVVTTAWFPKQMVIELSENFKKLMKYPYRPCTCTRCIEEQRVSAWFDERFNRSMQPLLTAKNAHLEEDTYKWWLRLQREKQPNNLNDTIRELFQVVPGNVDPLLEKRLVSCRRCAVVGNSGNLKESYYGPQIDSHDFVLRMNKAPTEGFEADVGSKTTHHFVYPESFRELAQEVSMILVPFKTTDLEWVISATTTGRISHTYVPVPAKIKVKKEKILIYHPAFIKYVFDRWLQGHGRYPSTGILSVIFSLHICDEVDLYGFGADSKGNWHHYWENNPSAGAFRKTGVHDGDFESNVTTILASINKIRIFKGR

[5] = biological target: T5, ST3 (Homo sapiens, UniProt Q11206); assay: Acceptor specificity of soluble ST3 (AZ3, concentrated COS-1 media); format: biochemical
T5 construct: A truncated form of ST3, lacking the first 39 amino acids of the long-form open reading frame; made in house; host or cells: COS-1 (concentrated culture medium)
T5 sequence (Q11206 41-333): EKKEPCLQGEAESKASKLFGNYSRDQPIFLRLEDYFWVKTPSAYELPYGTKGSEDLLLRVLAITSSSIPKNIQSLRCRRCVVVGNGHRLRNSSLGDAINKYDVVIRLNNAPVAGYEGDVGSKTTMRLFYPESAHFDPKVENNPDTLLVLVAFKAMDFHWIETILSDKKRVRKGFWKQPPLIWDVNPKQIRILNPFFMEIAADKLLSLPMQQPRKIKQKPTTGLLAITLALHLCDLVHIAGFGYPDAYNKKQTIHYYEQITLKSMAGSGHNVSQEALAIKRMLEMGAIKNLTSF

[6] = biological target: T6, human ST3N (Homo sapiens, UniProt Q11203); assay: Acceptor specificity of soluble human ST3N (protein A fusion from COS-1 cells, on IgG Sepharose); details: acceptor 0.2 mM; relative to LNT
T6 sequence (Q11203 62-375): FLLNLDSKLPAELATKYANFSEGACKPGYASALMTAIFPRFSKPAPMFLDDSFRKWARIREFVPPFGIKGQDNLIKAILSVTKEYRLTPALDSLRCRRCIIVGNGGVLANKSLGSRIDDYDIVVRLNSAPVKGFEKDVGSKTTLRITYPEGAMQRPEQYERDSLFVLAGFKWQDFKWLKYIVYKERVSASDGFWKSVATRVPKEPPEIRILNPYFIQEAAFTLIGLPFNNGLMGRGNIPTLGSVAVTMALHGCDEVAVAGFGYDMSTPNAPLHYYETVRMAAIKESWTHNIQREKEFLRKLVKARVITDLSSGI

[7] = test system: acceptor substrate antifreeze glycoprotein (AFGP); assay: Sialyltransferase activity of purified porcine liver α2,3-0 sialyltransferase; format: biochemical; details: after third CDP-hexanolamine agarose column
acceptor substrate antifreeze glycoprotein (AFGP), sequence (as listed by the source): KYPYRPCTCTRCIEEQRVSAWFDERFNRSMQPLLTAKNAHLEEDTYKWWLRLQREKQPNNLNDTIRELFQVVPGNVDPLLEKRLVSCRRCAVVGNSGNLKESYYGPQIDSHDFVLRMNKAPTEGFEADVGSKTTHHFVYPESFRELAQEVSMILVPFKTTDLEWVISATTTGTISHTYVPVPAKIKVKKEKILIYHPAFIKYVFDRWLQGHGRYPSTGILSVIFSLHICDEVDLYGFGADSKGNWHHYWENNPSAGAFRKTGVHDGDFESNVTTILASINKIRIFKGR
From the text: FIG. 4 Purification of the α2,3-0 sialyltransferase on CDP-hexanolamine agarose (column III, CDP elution). […] In columns A and B elution of enzyme activity correlated predominantly with 48 kDa and a 45 kDa protein species, respectively (see inset, SDS-PAGE). These two species, form A and form B of the α2,3 sialyltransferase, had specific activities of 8-10 units/mg protein. The 48 kDA and 45 kDA species were blotted to a PVDF membrane and analyzed by NH2 -terminal sequencing.
The enzyme was purified from a porcine liver Triton X-100 extract by affinity chromatography on three successive columns of CDP-hexanolamineagarose. The elution profile from the first and third purification steps are shown in FIG. 3 and FIG. 4, respectively. […] These two peaks were separated by combining the indicated fractions into pools A and B, these two pools were subsequently found to be enriched in two different molecular weight forms of the α2,3-0 sialyltransferase.
The membranes were extracted three times with buffer (Conradt, H. S. et al., in Sialic Acids 1988 Proceedings of the Japanese-German Symposium on Sialic Acids (Schauer and Yamakawa, eds.) pp. 104-105, Verlag Wissenschaft and Bildung, Kiel [1988]) and the extract was passed over a 1.5 l CDP-hexanolamine agarose column (column 1) (16 umol/ml). After washing the column with 3 L buffer B, the column was eluted with a linear gradient of 0.05 to 1.0 M KCL (2.5 l×2.5 l) in buffer B. Fractions containing α2,3 sialyltransferase were combined into two pools A and B, representing the main part and the trailing end of the peak, respectively (see FIG. 3). The pools were dialysed against buffer B and subjected to another round of affinity chromatography on CDP-hexanolamine agarose (columns IIA and IIB). A 150 ml column was used for pool A and a 30 ml column was used for pool B; two preparations from column I (from total of 4 kg liver) were loaded on the same column in step II. […]

[8] = test system: acceptor substrate antifreeze glycoprotein (AFGP); details: Rearick et al. 1979; cited from earlier work
[9] = biological target: T7, (Sus scrofa, UniProt Q02745); assay: Sialyltransferase activity in media of COS-1 cells transfected with sp-ST; details: 48 hours post-transfection, media concentrated
T7 sequence (Q02745 28-343 limits assumed): T4 sequence (Q02745 28-343 limits assumed)

Asialo-α1 -acid glycoprotein: glycoprotein acceptor (Galβ1,4GlcNAc-R)
acceptor utilisation by secreted α2,3-N enzyme [1]: capable of sialylating
Relative rate (%) ST3N [2]: 9%
Relative activity (%) Rat [3]: 9%
Relative rate (%) ST30 [4]: 0%
acceptor substrate for ST3 enzyme (in words) [5]: sialic acid was incorporated
Relative activity (%) Human [6]: 14%

B1: Form B: 45 kDa molecular weight form of the porcine liver α2,3 sialyltransferase (protein)
chain: T4 sequence (Q02745 28-343 limits assumed) with R201T
specific activity [7]: 8-10 units/mg protein
catalytic activity (in words) [8]: fully catalytically active

B2: sp-ST: fusion of insulin signal sequence, 9 linker amino acids and the catalytic domain of α2,3-0 sialyltransferase (protein)
chain: T4 sequence (Q02745 28-343 limits assumed) with R201T
sialyltransferase activity in media [9]: contained milliunits/ml of the sialyltransferase
